The record followed here is patent publication US20170101477A1.

Experiment [1] deals with extracellular domain portion of LEPR protein expressed with a C-terminal human Fc tag (hLEPR.hFc) (human). The experiment in a line: ELISA, 500 nM Ab, 10 nM hLEPR.hFc to coated hLeptin. A general note: In an ELISA, binding on a coated surface is turned into a signal by an enzyme label.
In experiment [2] the target is human LEPR extracellular domain expressed with a C-terminal mouse IgG2a Fc tag (hLEPR.mFc) (human). The experiment in a line: SPR, mAb captured, 37C. On the technique in general: SPR reads the build-up and loss of mass on a sensor chip optically.
Experiment [3] deals with human LEPR extracellular domain expressed with a C-terminal myc-myc-hexahistidine tag (hLEPR.mmh) (human) (UniProt P48357). The experiment can be described thus: SPR, mAb captured, 37C.
The target in experiment [4] is macaca fascicularis LEPR extracellular domain expressed with a C-terminal myc-myc-hexahistidine tag (mfLEPR.mmh) (Macaca fascicularis). The experiment can be described thus: SPR, mAb captured, 37C.
The target of experiment [5] is human LEPR extracellular domain expressed with a C-terminal mouse IgG2a Fc tag (hLEPR.mFc) (human). The experiment in a line: SPR, mAb captured, 25C.
Experiment [6] concerns the target human LEPR extracellular domain expressed with a C-terminal myc-myc-hexahistidine tag (hLEPR.mmh) (human) (UniProt P48357). The experiment in a line: SPR, mAb captured, 25C.
Experiment [7] has as its target macaca fascicularis LEPR extracellular domain expressed with a C-terminal myc-myc-hexahistidine tag (mfLEPR.mmh) (Macaca fascicularis). The experiment in a line: SPR, mAb captured, 25C.
In experiment [8] the target is Mycx2-hLepR(ecto)-GPI anchored, on HEK293/hLEPR-GPI cells (human) (UniProt P48357). The experiment can be described thus: FACS, 70 nM Ab, HEK293/hLEPR-GPI. A general note: Flow cytometry measures light scatter and fluorescence of single cells or particles in a stream.
The target of experiment [9] is full length human LEPR (amino acids 1-1165 of P48357, Isoform B), on cells (human) (UniProt P48357). The experiment in a line: FACS, 70 nM Ab, HEK293/Stat3-luc/hLEPR-FL.
Experiment [10] has as its target Mycx2-hLepR(ecto)-GPI anchored, on HEK293/hLEPR-GPI cells (human) (UniProt P48357). The experiment can be described thus: FACS, 10 nM Ab, HEK293/hLEPR-GPI, 1 uM Leptin.
For experiment [11] the target is unchanged. The experiment can be described thus: FACS, 10 nM Ab, HEK293/hLEPR-GPI, no added Leptin.
For experiment [12], the target named is human LEPR CRH1 (D1)-MMH (human) (UniProt P48357). The experiment in a line: Luminex, myc-captured LEPR protein.
Experiment [13] deals with human LEPR CRH1 (D1,D2)-MMH (human) (UniProt P48357). The experiment in a line: Luminex, myc-captured LEPR protein.
For experiment [14], the target named is human LEPR CRH1 (D1,D2,D3)-MMH (human) (UniProt P48357). The experiment can be described thus: Luminex, myc-captured LEPR protein.
In experiment [15] the target is human LEPR CRH1-Ig (D2,D3)-MMH (human) (UniProt P48357). The experiment can be described thus: Luminex, myc-captured LEPR protein.
In experiment [16] the target is human LEPR CRH2-MMH (human) (UniProt P48357). The experiment can be described thus: Luminex, myc-captured LEPR protein.
The target of experiment [17] is human LEPR FNIII-MMH (human) (UniProt P48357). The experiment in a line: Luminex, myc-captured LEPR protein.
In experiment [18] the target is human LEPR Ig (D3)-MMH (human) (UniProt P48357). The experiment can be described thus: Luminex, myc-captured LEPR protein.
Experiment [19] concerns the target human LEPR Ig-CRH2-FNIII-MMH (human) (UniProt P48357). The experiment can be described thus: Luminex, myc-captured LEPR protein.
In experiment [20] the target is human LEPR extracellular domain expressed with a C-terminal myc-myc-hexahistidine tag (hLEPR.mmh) (human) (UniProt P48357). The experiment in a line: Luminex, myc-captured LEPR protein.

Sequence of extracellular domain portion of LEPR protein expressed with a C-terminal human Fc tag (hLEPR.hFc) (human) (chain, as listed by the source limits assumed): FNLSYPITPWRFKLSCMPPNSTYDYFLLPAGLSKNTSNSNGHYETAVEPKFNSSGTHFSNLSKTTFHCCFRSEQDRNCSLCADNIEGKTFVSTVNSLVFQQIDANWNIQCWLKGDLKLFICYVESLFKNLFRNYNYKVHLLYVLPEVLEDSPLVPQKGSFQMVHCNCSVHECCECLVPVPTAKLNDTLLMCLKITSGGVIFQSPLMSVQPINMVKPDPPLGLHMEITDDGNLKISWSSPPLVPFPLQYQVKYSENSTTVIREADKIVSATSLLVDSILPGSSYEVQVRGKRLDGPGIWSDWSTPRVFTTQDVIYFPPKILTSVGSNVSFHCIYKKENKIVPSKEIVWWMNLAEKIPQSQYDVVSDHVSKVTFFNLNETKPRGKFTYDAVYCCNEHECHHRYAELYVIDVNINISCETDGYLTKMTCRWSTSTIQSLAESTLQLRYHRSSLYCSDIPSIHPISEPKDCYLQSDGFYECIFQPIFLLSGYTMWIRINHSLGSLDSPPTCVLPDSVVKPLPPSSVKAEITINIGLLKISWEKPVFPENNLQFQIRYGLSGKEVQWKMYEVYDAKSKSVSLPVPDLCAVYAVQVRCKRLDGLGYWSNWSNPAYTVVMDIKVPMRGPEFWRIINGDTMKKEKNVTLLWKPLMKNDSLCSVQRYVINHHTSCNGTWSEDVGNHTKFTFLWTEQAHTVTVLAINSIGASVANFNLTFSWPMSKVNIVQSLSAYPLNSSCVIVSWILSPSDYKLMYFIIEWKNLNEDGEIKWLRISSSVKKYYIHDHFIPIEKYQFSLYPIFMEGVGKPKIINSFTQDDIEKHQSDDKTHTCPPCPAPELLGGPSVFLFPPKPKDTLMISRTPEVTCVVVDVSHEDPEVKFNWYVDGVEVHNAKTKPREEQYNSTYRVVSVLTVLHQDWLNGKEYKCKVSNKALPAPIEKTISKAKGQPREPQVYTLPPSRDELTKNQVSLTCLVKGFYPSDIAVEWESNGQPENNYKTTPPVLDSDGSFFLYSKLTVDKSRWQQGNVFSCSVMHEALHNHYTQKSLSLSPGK
Sequence of human LEPR extracellular domain expressed with a C-terminal myc-myc-hexahistidine tag (hLEPR.mmh) (human) (P48357 other isoform, or with tags, fused parts or gaps): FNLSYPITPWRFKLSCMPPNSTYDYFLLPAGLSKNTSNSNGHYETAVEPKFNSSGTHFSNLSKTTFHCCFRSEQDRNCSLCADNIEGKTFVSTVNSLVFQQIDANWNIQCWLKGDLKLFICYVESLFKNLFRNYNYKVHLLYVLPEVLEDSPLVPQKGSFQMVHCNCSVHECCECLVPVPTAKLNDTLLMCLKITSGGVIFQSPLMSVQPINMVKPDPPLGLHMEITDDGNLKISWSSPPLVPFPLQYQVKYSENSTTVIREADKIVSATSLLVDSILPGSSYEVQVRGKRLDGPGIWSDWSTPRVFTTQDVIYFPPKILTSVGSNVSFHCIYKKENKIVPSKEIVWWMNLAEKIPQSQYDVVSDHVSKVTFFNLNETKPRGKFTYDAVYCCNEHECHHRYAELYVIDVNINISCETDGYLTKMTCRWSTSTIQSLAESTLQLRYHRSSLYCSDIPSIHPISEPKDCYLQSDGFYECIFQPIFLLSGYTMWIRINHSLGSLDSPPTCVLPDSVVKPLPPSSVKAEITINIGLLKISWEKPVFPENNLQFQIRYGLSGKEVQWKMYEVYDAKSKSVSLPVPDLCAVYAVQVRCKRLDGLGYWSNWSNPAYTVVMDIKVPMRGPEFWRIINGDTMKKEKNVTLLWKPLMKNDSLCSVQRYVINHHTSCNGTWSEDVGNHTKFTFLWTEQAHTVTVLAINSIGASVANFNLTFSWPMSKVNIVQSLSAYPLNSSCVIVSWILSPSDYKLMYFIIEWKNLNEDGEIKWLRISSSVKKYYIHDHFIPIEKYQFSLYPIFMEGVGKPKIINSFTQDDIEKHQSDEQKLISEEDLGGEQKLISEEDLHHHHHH
Sequence of Mycx2-hLepR(ecto)-GPI anchored, on HEK293/hLEPR-GPI cells (human) (P48357 22-839): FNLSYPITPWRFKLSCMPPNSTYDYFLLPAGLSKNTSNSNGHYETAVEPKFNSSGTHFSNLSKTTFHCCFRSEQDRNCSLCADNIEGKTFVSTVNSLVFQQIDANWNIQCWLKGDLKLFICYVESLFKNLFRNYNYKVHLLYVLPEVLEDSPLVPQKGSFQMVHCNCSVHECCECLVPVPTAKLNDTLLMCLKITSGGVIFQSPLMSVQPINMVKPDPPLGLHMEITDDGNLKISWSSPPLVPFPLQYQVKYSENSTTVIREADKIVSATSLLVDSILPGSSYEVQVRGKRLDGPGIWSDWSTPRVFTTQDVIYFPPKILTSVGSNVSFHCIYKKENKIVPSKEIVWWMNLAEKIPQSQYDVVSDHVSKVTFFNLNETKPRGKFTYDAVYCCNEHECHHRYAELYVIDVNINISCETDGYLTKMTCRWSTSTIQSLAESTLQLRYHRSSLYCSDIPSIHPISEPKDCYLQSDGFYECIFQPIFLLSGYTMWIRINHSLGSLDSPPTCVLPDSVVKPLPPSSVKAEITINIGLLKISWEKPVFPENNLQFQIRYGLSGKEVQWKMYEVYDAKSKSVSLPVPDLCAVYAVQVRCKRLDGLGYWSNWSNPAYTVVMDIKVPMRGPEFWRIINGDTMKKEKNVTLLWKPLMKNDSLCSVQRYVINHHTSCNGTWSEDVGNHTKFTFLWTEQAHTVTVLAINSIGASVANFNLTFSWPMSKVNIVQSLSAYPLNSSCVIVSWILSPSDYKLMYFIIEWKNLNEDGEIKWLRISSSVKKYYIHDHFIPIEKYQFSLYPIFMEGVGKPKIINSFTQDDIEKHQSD
Sequence of human LEPR extracellular domain expressed with a C-terminal mouse IgG2a Fc tag (hLEPR.mFc) (human) (chain, as listed by the source limits assumed): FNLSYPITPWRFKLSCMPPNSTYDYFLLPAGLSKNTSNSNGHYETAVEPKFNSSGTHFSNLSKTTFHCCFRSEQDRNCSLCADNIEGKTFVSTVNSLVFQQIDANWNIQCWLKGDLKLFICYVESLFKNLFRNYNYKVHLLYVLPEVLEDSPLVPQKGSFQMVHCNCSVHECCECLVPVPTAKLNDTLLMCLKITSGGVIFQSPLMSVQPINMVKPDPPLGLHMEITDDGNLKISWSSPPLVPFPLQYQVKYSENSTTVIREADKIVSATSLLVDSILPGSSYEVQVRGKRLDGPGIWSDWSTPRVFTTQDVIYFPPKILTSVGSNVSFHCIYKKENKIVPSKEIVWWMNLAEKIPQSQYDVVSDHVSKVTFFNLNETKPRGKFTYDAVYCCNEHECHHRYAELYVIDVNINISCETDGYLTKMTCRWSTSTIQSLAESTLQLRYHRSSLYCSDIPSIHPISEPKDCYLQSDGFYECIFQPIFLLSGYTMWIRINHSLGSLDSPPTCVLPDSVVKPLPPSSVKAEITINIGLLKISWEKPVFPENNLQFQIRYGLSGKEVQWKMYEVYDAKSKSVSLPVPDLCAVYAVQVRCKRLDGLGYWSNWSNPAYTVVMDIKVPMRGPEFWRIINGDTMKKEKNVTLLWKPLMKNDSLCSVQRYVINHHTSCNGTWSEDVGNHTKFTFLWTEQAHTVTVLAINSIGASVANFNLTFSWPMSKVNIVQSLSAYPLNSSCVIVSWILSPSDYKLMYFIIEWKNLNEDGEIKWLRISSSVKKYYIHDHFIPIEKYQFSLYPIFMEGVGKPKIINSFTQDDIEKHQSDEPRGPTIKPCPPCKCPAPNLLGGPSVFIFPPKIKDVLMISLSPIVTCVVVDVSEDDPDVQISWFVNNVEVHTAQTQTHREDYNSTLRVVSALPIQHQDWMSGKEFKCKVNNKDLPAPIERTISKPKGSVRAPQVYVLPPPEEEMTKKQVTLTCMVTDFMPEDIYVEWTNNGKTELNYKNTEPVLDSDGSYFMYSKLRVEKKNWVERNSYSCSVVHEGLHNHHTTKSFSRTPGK
Sequence of macaca fascicularis LEPR extracellular domain expressed with a C-terminal myc-myc-hexahistidine tag (mfLEPR.mmh) (Macaca fascicularis) (Q9MYL0 other isoform, or with tags, fused parts or gaps): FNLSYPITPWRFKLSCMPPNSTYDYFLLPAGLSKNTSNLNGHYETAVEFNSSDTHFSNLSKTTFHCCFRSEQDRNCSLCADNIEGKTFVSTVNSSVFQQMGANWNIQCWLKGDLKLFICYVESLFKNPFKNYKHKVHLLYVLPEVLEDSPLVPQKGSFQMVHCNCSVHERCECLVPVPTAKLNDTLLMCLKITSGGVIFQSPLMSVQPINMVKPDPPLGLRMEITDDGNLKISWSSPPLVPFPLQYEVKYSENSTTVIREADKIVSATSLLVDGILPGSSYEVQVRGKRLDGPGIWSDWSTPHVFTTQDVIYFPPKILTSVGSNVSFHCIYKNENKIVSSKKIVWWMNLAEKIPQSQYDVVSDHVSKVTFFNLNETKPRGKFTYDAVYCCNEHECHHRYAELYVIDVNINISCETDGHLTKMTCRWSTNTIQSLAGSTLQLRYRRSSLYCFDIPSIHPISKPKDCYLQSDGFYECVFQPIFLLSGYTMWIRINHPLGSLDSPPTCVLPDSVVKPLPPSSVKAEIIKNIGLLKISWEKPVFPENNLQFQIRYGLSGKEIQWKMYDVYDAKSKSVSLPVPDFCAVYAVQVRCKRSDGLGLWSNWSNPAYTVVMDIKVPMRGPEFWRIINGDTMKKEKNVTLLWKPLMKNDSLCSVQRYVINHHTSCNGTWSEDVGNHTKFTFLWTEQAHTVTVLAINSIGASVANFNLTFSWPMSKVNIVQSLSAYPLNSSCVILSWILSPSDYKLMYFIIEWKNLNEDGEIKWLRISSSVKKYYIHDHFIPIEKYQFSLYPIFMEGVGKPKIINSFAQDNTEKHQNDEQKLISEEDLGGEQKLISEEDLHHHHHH
Sequence of human LEPR CRH1 (D1,D2)-MMH (human) (P48357 22-339 limits assumed): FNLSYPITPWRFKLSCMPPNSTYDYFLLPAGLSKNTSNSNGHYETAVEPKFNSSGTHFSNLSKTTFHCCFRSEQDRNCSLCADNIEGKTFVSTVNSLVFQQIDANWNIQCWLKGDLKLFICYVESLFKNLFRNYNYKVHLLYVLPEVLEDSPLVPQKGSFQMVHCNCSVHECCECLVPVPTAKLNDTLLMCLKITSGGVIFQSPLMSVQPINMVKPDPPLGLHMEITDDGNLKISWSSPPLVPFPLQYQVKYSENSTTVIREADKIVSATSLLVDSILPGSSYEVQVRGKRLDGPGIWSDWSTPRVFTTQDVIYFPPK

Consider Mouse IgG2a Isotype control (antibody), for which the % blockade in [1] worked out at 32%.

Regarding Isotype Control mAb (antibody), the results for the 100 nM hLEPR-mFc Bound (RU) in experiment [2] and in experiment [5] were 1 RU and -2 RU, respectively. For the same substance, the 100 nM hLEPR-MMH Bound (RU) came to 6 RU in [3] and 4 RU in experiment [6]. Moreover, the 100 nM mfLEPR.MMH Bound (RU) in [4] is 1 RU; in experiment [7], 0 RU. The Binding Ratio came to 2 fold in [8], 2 fold in experiment [9], 4 fold in experiment [10] and 6 fold in [11]. Besides, the % blockade in experiment [1] is -3%.

On to “Comparator mAb (Fab9F8 described in Fazeli et al. 2006 and Carpenter et al. 2012) (antibody)”, for which the Luminex MFI is -14 MFI in [12]; 19 MFI in experiment [13]; -57 MFI in [14]; 27 MFI in [15]; 9400 MFI in experiment [16]; 73 MFI in experiment [17]. Also, the Luminex MFI in experiment [18] was 10 MFI; in [19], 7110 MFI; in experiment [20], 3910 MFI. For the same substance, the Binding Ratio in [10] is 112 fold; in experiment [11], 2350 fold. The % blockade in experiment [1] was 99%.
